The test system of this assay is transgenic rice plants. As to the kind of experiment: glyphosate resistance of the EPSPS mutant in transgenic rice plants sprayed with Roundup 41% ammonium glyphosate. Format: in vivo, rice (Nipponbare). Put shortly: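 EPSPS mutant genes were cloned into pGVP1 and introduced into Nipponbare rice embryo-derived calluses via Agrobacterium EHA105 (OD 0.2, 10 min infection, 2–3 days co-culture at 25 °C in the dark). Calluses went through recovery, two 14-day screening rounds at 30 °C, two differentiation rounds and rooting to regenerate transgenic plants.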

The mark [1] stands for this setting: 1× dosage 1060 g/hectare glyphosate sprayed, recorded on 10th day.
Setting [2] is: 2× dosage 2120 g/hectare sprayed to plants surviving 1×, recorded 10 days later.
Where [3] appears, read: 5× dosage 5300 g/hectare sprayed to plants surviving 2×, recorded 10 days later.
The mark [4] stands for this setting: 20× dosage 21200 g/hectare sprayed to plants surviving 5×, recorded 10 days later.

Where “and” joins values, the source holds several entries; their conditions need not be identical. Equal entries are not always repeated.

B1: R4: rice EPSPS mutant, SEQ ID NO: 36, mutation S267(247)G (protein)
chain: MASNAAAAAAKAEEIVLQPIREISGAVQLPGSKSLSNRILLLSALSEGTTVVDNLLNSEDVHYMLEALKALGLSVEADKVAKRAVVVGCGGKFPVEKDAKEEVQLFLGNAGTAMRPLTAAVTAAGGNATYVLDGVPRMRERPIGDLVVGLKQLGADVDCFLGTECPPVRVKGIGGLPGGKVKLSGSISSQYLSALLMAAPLALGDVEIEIIDKLISIPYVEMTLRLMERFGVKAEHSDSWDRFYIKGGQKYKSPGNAYVEGDASSAGYFLAGAAITGGTVTVQGCGTTSLQGDVKFAEVLEMMGAKVTWTDTSVTVTGPPREPYGKKHLKAVDVNMNKMPDVAMTLAVVALFADGPTAIRDVASWRVKETERMVAIRTELTKLGASVEEGPDYCIITPPEKLNITAIDTYDDHRMAMAFSLAACADVPVTIRDPGCTRKTFPNYFDVLSTFVRN
For B1, the “%++&+++ (percentage of plant having medium and high glyphosate resistance to the total number of plants observed)” value under setting [1] turned out to be 66.7%. The “number of plants denoted by + (low glyphosate resistance)” value (from here on “number … (low glyphosate resistance)”) under setting [1] is 46, the “number … (low glyphosate resistance)” value under setting [2] is 136, the “number … (low glyphosate resistance)” value under setting [3] was 67 and the “number … (low glyphosate resistance)” value under setting [4] turned out to be 8. Also, the “number of plants denoted by ++ (medium glyphosate resistance)” value (“number … (medium glyphosate resistance)” for short) by setting is: under setting [1], 62; under setting [2], 10; under setting [3], 0; under setting [4], 0. Besides, the “number of plants denoted by +++ (high glyphosate resistance)” value (from here on “number of plants denoted by +++”) by setting is: under setting [1], 44; under setting [2], 2; under setting [3], 0; under setting [4], 0. Moreover, the “number of plants denoted by − (no glyphosate resistance)” value (from here on “number … (no glyphosate resistance)”) is recorded as 7 under setting [1], 11 under setting [2], 92 under setting [3] and 151 under setting [4]. The “glyphosate resistance / survival of the rice transformed by the EPSPS, in words” value (from here on “glyphosate resistance / survival”) is, setting by setting: (1× glyphosate dosage) “obviously superior to that of the rice seedlings transformed by R0”; (2× glyphosate dosage) “some of the transgenic rice seedlings transformed by R1 and R4 still survived”; (5× glyphosate dosage) “some of the transgenic rice seedlings transformed by R1 and R4 still survived”; (20× glyphosate dosage) “some of the transgenic rice seedlings transformed by R1 and R4 still survived”. The “&++&+++ (percentage of plant having medium and high glyphosate resistance to the total number of plants observed)” value by setting is: under setting [3], 0.0%; under setting [4], 0.0%.

B2: R5: rice EPSPS mutant, SEQ ID NO: 38, mutations S267(247)G and P116(101)S (protein)
chain: MASNAAAAAAKAEEIVLQPIREISGAVQLPGSKSLSNRILLLSALSEGTTVVDNLLNSEDVHYMLEALKALGLSVEADKVAKRAVVVGCGGKFPVEKDAKEEVQLFLGNAGTAMRSLTAAVTAAGGNATYVLDGVPRMRERPIGDLVVGLKQLGADVDCFLGTECPPVRVKGIGGLPGGKVKLSGSISSQYLSALLMAAPLALGDVEIEIIDKLISIPYVEMTLRLMERFGVKAEHSDSWDRFYIKGGQKYKSPGNAYVEGDASSAGYFLAGAAITGGTVTVQGCGTTSLQGDVKFAEVLEMMGAKVTWTDTSVTVTGPPREPYGKKHLKAVDVNMNKMPDVAMTLAVVALFADGPTAIRDVASWRVKETERMVAIRTELTKLGASVEEGPDYCIITPPEKLNITAIDTYDDHRMAMAFSLAACADVPVTIRDPGCTRKTFPNYFDVLSTFVRN
Consider B2, for which, under setting [1], the “%++&+++ (percentage of plant having medium and high glyphosate resistance to the total number of plants observed)” value came out at 84.2%; the “number … (low glyphosate resistance)” value was 0; the “number … (medium glyphosate resistance)” value stood at 6; the “number of plants denoted by +++” value came out at 10. The “number … (no glyphosate resistance)” value under setting [1] worked out at 3. For the same molecule, for the setting “1× glyphosate dosage”, the “glyphosate resistance / survival” value is listed as “had relatively high resistance to glyphosate”. Besides, under setting [2], the “%++&+++ (percentage of plant having medium and high glyphosate resistance to the total number of plants observed)” value came to 63.3%; the “number … (low glyphosate resistance)” value is on record as 3; the “number … (medium glyphosate resistance)” value is given as 6; the “number of plants denoted by +++” value is reported as 4. For the same molecule, the “number … (no glyphosate resistance)” value under setting [2] is reported as 6. In addition, the “glyphosate resistance / survival” value (2× glyphosate dosage) was “had relatively high resistance to glyphosate”. In addition, under setting [3], the “&++&+++ (percentage of plant having medium and high glyphosate resistance to the total number of plants observed)” value is given as 42.1%; the “number … (low glyphosate resistance)” value came out at 3; the “number … (medium glyphosate resistance)” value came out at 8; the “number of plants denoted by +++” value came out at 0. The “number … (no glyphosate resistance)” value under setting [3] was determined as 8. In addition, under setting [4], the “&++&+++ (percentage of plant having medium and high glyphosate resistance to the total number of plants observed)” value was found to be 0.0%; the “number … (low glyphosate resistance)” value is on record as 8; the “number … (medium glyphosate resistance)” value is on record as 0; the “number of plants denoted by +++” value is 0. Besides, under setting [4], the “number … (no glyphosate resistance)” value worked out at 11.

B3: R6: rice EPSPS mutant, SEQ ID NO: 40, mutations S267(247)G, L214(195)P and P116(101)S (protein)
chain: MASNAAAAAAKAEEIVLQPIREISGAVQLPGSKSLSNRILLLSALSEGTTVVDNLLNSEDVHYMLEALKALGLSVEADKVAKRAVVVGCGGKFPVEKDAKEEVQLFLGNAGTAMRSLTAAVTAAGGNATYVLDGVPRMRERPIGDLVVGLKQLGADVDCFLGTECPPVRVKGIGGLPGGKVKLSGSISSQYLSALLMAAPLALGDVEIEIIDKPISIPYVEMTLRLMERFGVKAEHSDSWDRFYIKGGQKYKSPGNAYVEGDASSAGYFLAGAAITGGTVTVQGCGTTSLQGDVKFAEVLEMMGAKVTWTDTSVTVTGPPREPYGKKHLKAVDVNMNKMPDVAMTLAVVALFADGPTAIRDVASWRVKETERMVAIRTELTKLGASVEEGPDYCIITPPEKLNITAIDTYDDHRMAMAFSLAACADVPVTIRDPGCTRKTFPNYFDVLSTFVRN
As for B3, under setting [1], the “%++&+++ (percentage of plant having medium and high glyphosate resistance to the total number of plants observed)” value is given as 70.0%; the “number … (low glyphosate resistance)” value is on record as 7; the “number … (medium glyphosate resistance)” value is given as 3; the “number of plants denoted by +++” value was 18. For the same molecule, under setting [1], the “number … (no glyphosate resistance)” value is reported as 2. The “glyphosate resistance / survival” value (1× glyphosate dosage) is “had relatively high resistance to glyphosate”. Also, under setting [2], the “number … (low glyphosate resistance)” value is given as 3, the “number … (medium glyphosate resistance)” value was determined as 1, the “number of plants denoted by +++” value was found to be 18 and the “number … (no glyphosate resistance)” value is given as 8. The “glyphosate resistance / survival” value (2× glyphosate dosage) was “had relatively high resistance to glyphosate”. For the same molecule, under setting [3], the “&++&+++ (percentage of plant having medium and high glyphosate resistance to the total number of plants observed)” value was 63.3%; the “number … (low glyphosate resistance)” value came out at 0; the “number … (medium glyphosate resistance)” value amounted to 6; the “number of plants denoted by +++” value is reported as 13. Besides, the “number … (no glyphosate resistance)” value under setting [3] is listed as 11. Also, under setting [4], the “&++&+++ (percentage of plant having medium and high glyphosate resistance to the total number of plants observed)” value is 63.38% and 63.3%; the “number … (low glyphosate resistance)” value worked out at 0; the “number … (medium glyphosate resistance)” value stood at 11; the “number of plants denoted by +++” value amounted to 8. Besides, the “number … (no glyphosate resistance)” value under setting [4] worked out at 11.

The values above are taken from patent US11584938B2, “Plant EPSPS mutant containing L195P and S247G mutations and encoding gene and use thereof” (GEVOTO LLC, priority 2017, dated 2023).
